For orientation: Kd means the concentration at which binding is half-saturated. A high value points to a looser complex.

Positions count from the first letter of the chain named. In names and notes the source's numbering stands.

To fix the notation:
B1: WT AHD1-UBAN (TNIP1 417-509) (domain or fragment, human, UniProt Q15025 417-509, looked up)
chain: QRLNKALEEALSIQTPPSSPPTAFGSPEGAGALLRKQELVTQNELLKQQVKIFEEDFQRERSDRERMNEEKEELKKQVEKLQAQVTLSNAQLK
notes: TNIP1 (ABIN1), human, amino acids 417-509, the contiguous AHD1 and UBAN domains with their linker; In pET-28a(+); 15N-labelled for NMR; labelled with RED-tris-NTA dye on the His tag for MST; also called wildtype; ABIN1 AHD1-UBAN; source: E. coli Rosetta2 (DE3), purified (IMAC, SEC)
B2: AHD1-UBAN P436W (domain or fragment, human, UniProt Q15025 417-509, looked up)
chain: B1 chain with P20W
notes: TNIP1 (ABIN1), human, amino acids 417-509 with P436W; source: E. coli Rosetta2 (DE3), purified (IMAC, SEC)
B3: AHD1-UBAN E425W (domain or fragment, human, UniProt Q15025 417-509, looked up)
chain: B1 chain with E9W
notes: TNIP1 (ABIN1), human, amino acids 417-509 with E425W; source: E. coli Rosetta2 (DE3), purified (IMAC, SEC)
B4: AHD1-UBAN E425Q (domain or fragment, human, UniProt Q15025 417-509, looked up)
chain: B1 chain with E9Q
notes: TNIP1 (ABIN1), human, amino acids 417-509 with E425Q; source: E. coli Rosetta2 (DE3), purified (IMAC, SEC)
B5: AHD1-UBAN E444Q (domain or fragment, human, UniProt Q15025 417-509, looked up)
chain: B1 chain with E28Q
notes: TNIP1 (ABIN1), human, amino acids 417-509 with E444Q; source: E. coli Rosetta2 (DE3), purified (IMAC, SEC)
B6: AHD1-UBAN E444F (domain or fragment, human, UniProt Q15025 417-509, looked up)
chain: B1 chain with E28F
notes: TNIP1 (ABIN1), human, amino acids 417-509 with E444F; source: E. coli Rosetta2 (DE3), purified (IMAC, SEC)

T1 sequence (P0CG48 1-228, one chain of several): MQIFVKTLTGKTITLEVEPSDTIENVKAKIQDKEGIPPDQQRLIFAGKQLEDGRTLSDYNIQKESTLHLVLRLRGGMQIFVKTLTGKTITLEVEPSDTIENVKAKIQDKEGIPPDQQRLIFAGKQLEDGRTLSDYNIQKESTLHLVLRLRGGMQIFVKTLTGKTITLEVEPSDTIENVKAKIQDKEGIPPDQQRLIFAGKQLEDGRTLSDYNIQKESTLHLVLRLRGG

The first experiment addresses T1, Methionine-1-linked triubiquitin (UniProt P0CG48 1-76; P0CG48 1-76; P0CG48 1-76).
T1 construct: ubiquitin, unit 1 of 3, joined head to tail (M1-linked) on one chain; ubiquitin, unit 2 of 3, joined head to tail (M1-linked) on one chain; ubiquitin, unit 3 of 3, joined head to tail (M1-linked) on one chain; also called M1-triUb; M1-linked triubiquitin; source: bacterial production, purified (IMAC, SEC)
Briefly: MST; AHD1-UBAN labelled with RED-tris-NTA 2nd generation dye on its 6x-histidine tag; 16-step 2-fold serial dilution of M1-triUb from 40 µM to 610 pM; standard capillaries, Monolith X, MST power 40%, 23 °C; n = 2. As to conditions: both partners purified.
B1 had a Kd of 3.85 ± 0.89 µM.

As to B2, the Kd is 8.38 ± 0.77 µM. Compared with the last molecule, the Kd is about 2.2-fold higher.

B3 came in with a Kd of 7.41 ± 2.28 µM.

A further experiment addresses T1, Methionine-1-linked triubiquitin. Briefly: far-UV circular dichroism difference spectra; 1:1 molar mixture, each protein at 10 µM, 50 mM sodium phosphate pH 8.0, room temperature; compared with the mathematical average of the two separate spectra. As to conditions: both partners purified.
Consider B4, for which the binding result is “binds”. Still for that read-out and setting: with B5 the entry was “binds”; with B6, “binds”.

The record behind these values is PMC11940065, “Conformational Analyses of the AHD1-UBAN Region of TNIP1 Highlight Key Amino Acids for Interaction with Ubiquitin” (Biomolecules, 2025).
